We go through six molecules from patent US20200270125A1 (OMEROS, published 2020).

Test [1] deals with T1, human MASP-3 CCP1-CCP2-SP fragment (human).
T1 chain: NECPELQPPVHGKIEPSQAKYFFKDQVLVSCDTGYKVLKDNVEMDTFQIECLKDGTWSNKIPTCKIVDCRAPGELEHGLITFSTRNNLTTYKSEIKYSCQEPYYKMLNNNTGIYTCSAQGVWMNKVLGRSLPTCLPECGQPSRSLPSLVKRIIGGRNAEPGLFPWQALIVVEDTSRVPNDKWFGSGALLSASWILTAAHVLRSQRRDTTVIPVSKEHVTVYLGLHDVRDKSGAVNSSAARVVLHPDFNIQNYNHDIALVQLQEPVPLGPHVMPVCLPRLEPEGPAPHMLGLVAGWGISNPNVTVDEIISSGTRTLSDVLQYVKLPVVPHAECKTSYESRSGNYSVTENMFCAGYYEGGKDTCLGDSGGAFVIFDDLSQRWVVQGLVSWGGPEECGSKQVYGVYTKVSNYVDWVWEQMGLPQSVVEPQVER
Briefly: cell-based or functional assay.

Test [2] concerns the target T2, human MASP-3 (construct not stated) (human).
T2 chain: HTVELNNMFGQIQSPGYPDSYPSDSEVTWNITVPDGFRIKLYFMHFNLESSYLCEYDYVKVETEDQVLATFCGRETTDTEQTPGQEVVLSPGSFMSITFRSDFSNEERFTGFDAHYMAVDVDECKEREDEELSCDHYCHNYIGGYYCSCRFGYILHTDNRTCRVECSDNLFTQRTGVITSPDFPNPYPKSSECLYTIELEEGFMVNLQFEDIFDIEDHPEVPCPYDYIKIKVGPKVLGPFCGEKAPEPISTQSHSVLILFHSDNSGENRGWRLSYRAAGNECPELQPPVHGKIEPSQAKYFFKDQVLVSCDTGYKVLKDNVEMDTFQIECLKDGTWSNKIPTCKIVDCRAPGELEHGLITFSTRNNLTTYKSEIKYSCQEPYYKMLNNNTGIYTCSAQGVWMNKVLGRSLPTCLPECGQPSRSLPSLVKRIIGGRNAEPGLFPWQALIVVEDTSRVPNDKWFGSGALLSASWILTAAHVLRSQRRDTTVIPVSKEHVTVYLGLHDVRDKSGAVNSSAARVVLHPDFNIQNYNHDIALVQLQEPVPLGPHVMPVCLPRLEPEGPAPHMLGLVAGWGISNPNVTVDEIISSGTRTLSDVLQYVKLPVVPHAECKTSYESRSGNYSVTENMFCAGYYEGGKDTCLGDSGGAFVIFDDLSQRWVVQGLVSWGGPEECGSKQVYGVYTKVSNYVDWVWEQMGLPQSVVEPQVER
Briefly: cell-based or functional assay.

For test [3], the target named is T2, human MASP-3 (construct not stated). Briefly: cell-based or functional assay.
For test [4] the target is unchanged. Briefly: not described at this place.
Test [5] deals with T1, human MASP-3 CCP1-CCP2-SP fragment. In words: sandwich ELISA, MASP-3 CCP1-CCP2-SP captured by αM3-259. As to the method: (§1) The plate was then washed (PBS-T, 0.05%) and the candidate MASP-3 antibodies were added followed by incubation for one hour at room temperature. The plate was washed (PBS-T, 0.05%) and a detection antibody was added (mouse anti-human kappa-HRP, SouthernBiotech #9230-05) for one hour at room temperature. After another wash (PBS-T, 0.05%) the plate was developed (5 minutes) with OPT EIA TMB (BD Biosciences #555214). Absorbance reading at A450 was measured using the Spectramax M5e plate reader.

Test [6] concerns the target T3, recombinant full-length mouse MASP-3 (mouse).
T3 construct: Entry is with leader; also called mouse full length MASP-3
T3 chain: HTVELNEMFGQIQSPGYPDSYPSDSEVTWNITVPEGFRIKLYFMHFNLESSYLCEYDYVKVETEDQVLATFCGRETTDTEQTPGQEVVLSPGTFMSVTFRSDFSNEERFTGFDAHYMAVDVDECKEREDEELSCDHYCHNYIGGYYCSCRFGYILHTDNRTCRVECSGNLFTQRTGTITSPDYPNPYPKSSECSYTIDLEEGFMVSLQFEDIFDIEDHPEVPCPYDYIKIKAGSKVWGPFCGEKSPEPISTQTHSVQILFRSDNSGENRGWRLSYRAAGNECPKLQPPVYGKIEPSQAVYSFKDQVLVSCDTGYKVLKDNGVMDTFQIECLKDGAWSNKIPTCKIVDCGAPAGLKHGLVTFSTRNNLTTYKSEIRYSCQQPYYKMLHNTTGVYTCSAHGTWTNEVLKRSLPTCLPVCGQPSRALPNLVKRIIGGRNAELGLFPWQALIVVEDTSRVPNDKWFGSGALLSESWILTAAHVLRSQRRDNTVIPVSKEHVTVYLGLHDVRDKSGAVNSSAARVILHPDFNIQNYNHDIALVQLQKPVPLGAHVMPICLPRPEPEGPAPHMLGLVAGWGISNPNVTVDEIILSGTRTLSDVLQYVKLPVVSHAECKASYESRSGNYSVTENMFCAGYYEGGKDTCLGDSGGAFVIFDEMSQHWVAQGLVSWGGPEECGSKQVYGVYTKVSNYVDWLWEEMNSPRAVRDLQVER
In words: sandwich ELISA, full-length mouse MASP-3 captured by αM3-259. On the procedure: as §1

The target of test [7] is T4, recombinant human MASP-2 (CCP1-CCP2-SP fragment) (human, UniProt O00187 298-686, limits assumed).
T4 construct: domain: CCP1-CCP2-SP fragment
Briefly: ELISA: recombinant MASP-2 (CCP1-CCP2-SP) coated directly on the plate, A450. As to the method:
as §1

Test [8] has as its target T5, recombinant human MASP-1A (S646A, CCP1-CCP2-SP fragment) (human, UniProt P48740 298-699, limits assumed).
T5 chain: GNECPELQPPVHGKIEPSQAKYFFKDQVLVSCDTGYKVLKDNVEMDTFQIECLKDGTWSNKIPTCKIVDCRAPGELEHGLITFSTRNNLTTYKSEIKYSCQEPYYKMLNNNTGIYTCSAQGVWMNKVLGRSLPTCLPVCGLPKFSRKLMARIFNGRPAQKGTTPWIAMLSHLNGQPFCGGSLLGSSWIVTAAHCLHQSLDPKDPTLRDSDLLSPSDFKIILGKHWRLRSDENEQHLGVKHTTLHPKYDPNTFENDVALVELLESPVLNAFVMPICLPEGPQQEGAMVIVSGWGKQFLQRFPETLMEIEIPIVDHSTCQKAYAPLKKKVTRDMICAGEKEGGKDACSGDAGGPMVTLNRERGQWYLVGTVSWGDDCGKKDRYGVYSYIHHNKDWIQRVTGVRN
Briefly: ELISA: recombinant MASP-1A (S646A, CCP1-CCP2-SP) coated directly on the plate, A450. On the procedure: as §1

Test [9] addresses T1, human MASP-3 CCP1-CCP2-SP fragment. In words: sandwich ELISA: human MASP-3 CCP1-CCP2-SP captured on aM3-259, mAb detected with anti-human kappa-HRP, A450. As to the method: as §1
The target of test [10] is T2, human MASP-3 (construct not stated). Briefly: ELISA, monovalent Fab.
For test [11] the target is unchanged. In words: cross-species binding experiments.
Test [12] deals with T6, human MASP-1 (construct not stated) (human, UniProt P48740 20-699, limits assumed).
T6 sequence: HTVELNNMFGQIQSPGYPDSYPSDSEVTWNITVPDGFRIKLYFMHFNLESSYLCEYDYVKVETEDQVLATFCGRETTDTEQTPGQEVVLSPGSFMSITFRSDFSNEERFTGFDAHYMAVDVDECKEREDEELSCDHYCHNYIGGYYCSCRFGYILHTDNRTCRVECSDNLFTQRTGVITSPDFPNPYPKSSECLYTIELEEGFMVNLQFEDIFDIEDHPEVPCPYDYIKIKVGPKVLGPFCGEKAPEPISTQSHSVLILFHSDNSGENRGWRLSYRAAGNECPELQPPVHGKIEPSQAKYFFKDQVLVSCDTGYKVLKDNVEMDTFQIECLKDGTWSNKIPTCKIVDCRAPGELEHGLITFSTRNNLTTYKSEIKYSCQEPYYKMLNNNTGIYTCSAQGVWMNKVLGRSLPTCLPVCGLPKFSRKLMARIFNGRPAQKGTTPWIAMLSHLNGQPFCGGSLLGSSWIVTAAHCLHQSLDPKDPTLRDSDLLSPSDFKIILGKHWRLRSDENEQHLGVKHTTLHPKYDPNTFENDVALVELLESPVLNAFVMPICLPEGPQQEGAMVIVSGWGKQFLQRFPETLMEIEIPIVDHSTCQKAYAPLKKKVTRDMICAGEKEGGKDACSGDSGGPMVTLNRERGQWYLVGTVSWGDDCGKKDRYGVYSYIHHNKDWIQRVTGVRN
In words: DTLacO screen.

Some results are limits rather than exact numbers.

T4 sequence (O00187 298-686 limits assumed): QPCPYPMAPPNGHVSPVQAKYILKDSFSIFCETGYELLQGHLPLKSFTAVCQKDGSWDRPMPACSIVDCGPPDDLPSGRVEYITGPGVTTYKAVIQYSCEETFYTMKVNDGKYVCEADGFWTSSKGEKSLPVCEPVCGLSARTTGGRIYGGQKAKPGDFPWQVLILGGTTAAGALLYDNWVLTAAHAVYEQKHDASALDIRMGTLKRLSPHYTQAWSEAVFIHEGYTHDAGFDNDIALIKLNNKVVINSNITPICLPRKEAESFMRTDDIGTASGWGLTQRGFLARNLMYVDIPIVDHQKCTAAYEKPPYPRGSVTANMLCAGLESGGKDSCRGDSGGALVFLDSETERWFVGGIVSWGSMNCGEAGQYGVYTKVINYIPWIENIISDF

B1: MASP-3 mAb 4D5 (mouse-human chimeric IgG4) (antibody, V domains shown)
VH: QVQLKQSGPELVKPGASVKLSCKASGYTFTTDDINWVKQRPGQGLEWIGWIYPRDDRTKYNDKFKDKATLTVDTSSNTAYMDLHSLTSEDSAVYFCSSLEDTYWGQGTLVAVSS
VL: DIVMTQSPSSLAVSAGEKVTMTCKSSQSLLNSRTRKNYLAWYQQKPGQSPKLLIYWASTRESGVPDRFTGSGSGTDFSLTISSVQAEDLAVYYCKQSYNLYTFGGGTKLEIKR
Take B1: the “inhibition of MASP-3-dependent fluorogenic tripeptide (BOC-V-P-R-AMC) cleavage” value (“inhibition … (BOC-V-P-R-AMC) cleavage” below) in [1] is 27.5 nM. The “Inhibition of Factor Bb Deposition on Zymosan (IC50 nM), 10% factor D-depleted human serum with pro-factor D” value in test [2] amounted to 0.4 nM. Besides, the “Inhibition of Rabbit Erythrocyte Lysis (IC50 nM), 10% factor D-depleted human serum” value in [3] was found to be 0.1 nM. Besides, the binding affinity in test [4] was at most 500 pM. Also, the EC50 in test [5] was determined as 58 pM; in [6], 98 pM; in test [9] it was 113 pM. For the same molecule, the binding result in test [7] and in test [8] was “no binding (tested: about 20 nM (log10 about 1.3))” throughout.

B2: 4D5 Parental Fab (Fab, V domains shown)
VH: QVQLKQSGPELVKPGASVKLSCKASGYTFTTDDINWVKQRPGQGLEWIGWIYPRDDRTKYNDKFKDKATLTVDTSSNTAYMDLHSLTSEDSAVYFCSSLEDTYWGQGTLVAVSS
VL: DIVMTQSPSSLAVSAGEKVTMTCKSSQSLLNSRTRKNYLAWYQQKPGQSPKLLIYWASTRESGVPDRFTGSGSGTDFSLTISSVQAEDLAVYYCKQSYNLYTFGGGTKLEIKR
notes: Monovalent Fab; also called 4D5 Fab
B2 yielded an EC50 in test [10] of 107 pM. Further, the avidity in test [11] is under 500 pM.

B3: MASP-3 mAb 1G4 (mouse-human chimeric IgG4) (antibody, V domains shown)
VH: QVQLKQSGAELMKPGASVKLACKATGYTFTGYWIEWIKQRPGQGLEWIGEMLPGSGSTHYNEKFKGKATFTADTSSNTAYMQLSGLTTEDSAIYYCVRSIDYWGQGTTLTVSS
VL: DVLMTQTPLSLPVSLGEQASISCRSSQSLVQSNGNTYLHWYLQKPGQSPKLLIYKVSNRFSGVPDRFSGSGSGTDFTLKISRVEAEDLGVYFCSQSTHVPPTFGGGTKLEIKR
Regarding B3, the “inhibition … (BOC-V-P-R-AMC) cleavage” value in test [1] stood at 29.6 nM. Moreover, the “Inhibition of Factor Bb Deposition on Zymosan (IC50 nM), 10% factor D-depleted human serum with pro-factor D” value in test [2] amounted to 1.1 nM. In test [3], the “Inhibition of Rabbit Erythrocyte Lysis (IC50 nM), 10% factor D-depleted human serum” value turned out to be 2.7 nM. The molecule also registered a binding affinity in test [4] of at most 500 pM. The figures for the EC50 in [5] and in test [6] were 177 pM and 3700 pM, respectively. Also, the binding result in [7] and in [8] was “no binding (tested: about 20 nM (log10 about 1.3))” throughout.

B4: MASP-3 mAb 10D12 (mouse-human chimeric IgG4) (antibody, V domains shown)
VH: QIQLVQSGPELKKPGETVKISCKASGYIFTSYGMSWVRQAPGKGLKWMGWINTYSGVPTYADDFKGRFAFSLETSARTPYLQINNLKNEDTATYFCARGGEAMDYWGQGTSVTVSS
VL: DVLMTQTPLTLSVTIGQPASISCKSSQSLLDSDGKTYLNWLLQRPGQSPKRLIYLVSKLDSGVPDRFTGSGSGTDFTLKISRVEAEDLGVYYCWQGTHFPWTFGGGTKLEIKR
On to B4, for which the “inhibition … (BOC-V-P-R-AMC) cleavage” value in [1] came out at 30.9 nM. Moreover, in test [2], the “Inhibition of Factor Bb Deposition on Zymosan (IC50 nM), 10% factor D-depleted human serum with pro-factor D” value was found to be 0.5 nM. Also, the binding affinity in test [4] is at most 500 pM. Moreover, the figures for the concentration giving a half-maximal response (EC50) in [5], in [6] and in test [9] were 89 pM, 81 pM and 23 pM, respectively. Moreover, the binding result in [7] and in test [8] was “no binding (tested: about 20 nM (log10 about 1.3))” each time.

B5: 10D12 Parental Fab (Fab, V domains shown)
VH: QIQLVQSGPELKKPGETVKISCKASGYIFTSYGMSWVRQAPGKGLKWMGWINTYSGVPTYADDFKGRFAFSLETSARTPYLQINNLKNEDTATYFCARGGEAMDYWGQGTSVTVSS
VL: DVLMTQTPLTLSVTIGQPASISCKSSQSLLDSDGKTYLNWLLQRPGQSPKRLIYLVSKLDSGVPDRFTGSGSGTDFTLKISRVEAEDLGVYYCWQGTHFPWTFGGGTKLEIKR
notes: Monovalent Fab; also called 10D12 Fab
B5 had an EC50 in test [10] of 108 pM. In test [11], the avidity was under 500 pM.

B6: MASP-3 clone D14 (antibody, human IgG1, V domains shown)
VH: AVTLDESGGGLQTPGGALSLVCKASGFTFSSYAMHWVRQAPGKGLEWVAGIYKSGAGTNYAPAVKGRATISRDNGQSTVRLQLNNLRAEDTGTYYCAKTTGSGCSSGYRAEYIDAWGHGTEVIVSS
VL: ALTQPASVSANPGETVKITCSGGGSYAGSYYYGWYQQKAPGSAPVTLIYYNNKRPSDIPSRFSGSLSGSTNTLTITGVRADDEAVYFCGSADNSGAAFGAGTTLTVL
notes: Chicken V regions from the DTLacO platform; also called mAbD14; mAb D14
For B6, the binding result in test [12] is recorded as “binds”.
